Assay [1] has as its target T1, human BCMA on cells (endogenous on multiple myeloma cell lines; stably transfected 293T-hBCMA) (human, UniProt Q02223 1-184).
T1 sequence: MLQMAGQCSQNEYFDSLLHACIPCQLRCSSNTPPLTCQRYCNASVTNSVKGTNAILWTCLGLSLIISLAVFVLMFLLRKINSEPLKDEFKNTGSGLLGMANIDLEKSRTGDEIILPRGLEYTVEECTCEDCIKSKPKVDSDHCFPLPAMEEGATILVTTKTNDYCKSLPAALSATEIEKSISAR
The assay can be described thus: cell-based or functional assay.

Assay [2] deals with T2, cynomolgus BCMA on stably transfected 293T cells (cynomolgus monkey, UniProt Q02223 1-184 (human entry)). The assay can be described thus: FACS cell binding, 293T-cynoBCMA cells.
The target in assay [3] is T1, human BCMA on cells (endogenous on …). The assay is described as follows: FACS cell binding, NCI-H929 (BCMA+) cells.
For assay [4], the target named is T3, cyno BCMA-Fc (custom protein production) (cynomolgus monkey, UniProt Q02223 1-54 (human entry)).
T3 construct: also called cynomolgus BCMA-Fc; not shown: Fc part of the fusion protein, not described
The assay can be described thus: SPR (Biacore), antibody captured on anti-Fab or anti-Fc surface, cyno BCMA-Fc as analyte, 25 C. In general terms: Surface plasmon resonance follows binding to a sensor surface in real time, without labels.

Assay [5] addresses T4, human BCMA-Fc (R&D Systems) (human, UniProt Q02223 1-54).
T4 construct: Bought protein; not shown: Fc part of the bought fusion protein, not described
T4 sequence: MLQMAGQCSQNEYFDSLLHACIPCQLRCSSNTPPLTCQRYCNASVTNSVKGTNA
The assay can be described thus: SPR (Biacore), antibody captured on anti-Fab or anti-Fc surface, human BCMA-Fc as analyte, 25 C.

Assay [6] deals with T1, human BCMA on cells (endogenous on …). The assay is described as follows: flow cytometry, ARP-1 cells. In general terms: A flow cytometer gives signals particle by particle.
Assay [7] shares this target. The assay is described as follows: flow cytometry, MM.1S cells.
For assay [8] the target is unchanged. The assay can be described thus: flow cytometry, OPM-2 cells.
Assay [9] shares this target. The assay is described as follows: flow cytometry, RPMI-8226 cells.
Assay [10] concerns the target T2, cynomolgus BCMA on stably transfected …. The assay can be described thus: flow cytometry, 293T-cBCMA cells.
The target of assay [11] is T1, human BCMA on cells (endogenous on …). The assay is described as follows: flow cytometry, 293T-hBCMA cells.
The target of assay [12] is T5, mouse BCMA on transfected HEK293T cells (mouse, UniProt O88472 1-185).
T5 sequence: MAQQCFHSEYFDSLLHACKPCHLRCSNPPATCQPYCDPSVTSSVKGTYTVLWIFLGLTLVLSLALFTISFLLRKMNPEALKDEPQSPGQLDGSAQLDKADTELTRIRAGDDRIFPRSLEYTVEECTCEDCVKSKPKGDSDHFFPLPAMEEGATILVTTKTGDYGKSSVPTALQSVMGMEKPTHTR
The assay is described as follows: flow cytometry on 293T-mBCMA cells.

The target in assay [13] is T1, human BCMA on cells (endogenous on …). The assay can be described thus: flow cytometry, NCI-H929 cells; NCI-H929 cells.
For assay [14] the target is unchanged. The assay can be described thus: cell-based or functional assay. This is another data set of the same source.
For assay [15] the target is unchanged. The assay is described as follows: cell-based or functional assay. This is another data set of the same source.
Assay [16] shares this target. The assay is described as follows: cell-based or functional assay. The source holds these as a separate data set.
Assay [17] has the same target. The assay is described as follows: cell-based or functional assay. This is another data set of the same source.
The target is the same in assay [18]. The assay is described as follows: flow cytometry, U266B1 cells.
For assay [19] the target is unchanged. The assay can be described thus: flow cytometry, NCI-H929 cells.
Assay [20] concerns the target T6, human TACI on stably transfected 293T cells (human, UniProt O14836 1-293).
T6 construct: whole, on cells; also called TNFRSF13B
T6 sequence (looked up): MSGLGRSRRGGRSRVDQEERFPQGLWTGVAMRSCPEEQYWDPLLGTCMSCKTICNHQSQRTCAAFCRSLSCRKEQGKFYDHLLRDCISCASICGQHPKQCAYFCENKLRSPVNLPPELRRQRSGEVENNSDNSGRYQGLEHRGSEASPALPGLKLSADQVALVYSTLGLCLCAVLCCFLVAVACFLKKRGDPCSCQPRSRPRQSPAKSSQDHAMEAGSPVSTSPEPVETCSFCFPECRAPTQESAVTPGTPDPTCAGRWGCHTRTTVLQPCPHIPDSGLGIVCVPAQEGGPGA
The assay can be described thus: flow cytometry on 293T cells stably expressing human TACI.

The target in assay [21] is T7, human BAFF-R on stably transfected 293T cells (human, UniProt Q96RJ3 1-184).
T7 construct: whole, on cells; also called TNFRSF13C
The assay can be described thus: flow cytometry on 293T cells stably expressing human BAFF-R.

Read-outs that look alike come from different tables or passages of the source.

T2 sequence (Q02223 other isoform, or with tags, fused parts or gaps): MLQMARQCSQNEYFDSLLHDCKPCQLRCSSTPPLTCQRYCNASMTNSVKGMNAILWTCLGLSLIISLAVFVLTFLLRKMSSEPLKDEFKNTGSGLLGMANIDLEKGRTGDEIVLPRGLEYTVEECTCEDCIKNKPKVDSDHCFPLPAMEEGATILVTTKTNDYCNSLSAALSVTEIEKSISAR

B1: 2265-F02 (Fab-HC Variant ID; Antibody 4), cell-free expressed His- and FLAG-tagged IgG1 used in screening (antibody, V domains shown)
VH: EVQLVESGGGLVQPGGSLRLSCAASGFNISAPGIHWVRQAPGKGLEWVGFINPAGGYTDYADSVKGRFTISADTSKNTAYLQMNSLRAEDTAVYYCARDYIRQYWTYVLDYWGQGTLVTVSS
VL: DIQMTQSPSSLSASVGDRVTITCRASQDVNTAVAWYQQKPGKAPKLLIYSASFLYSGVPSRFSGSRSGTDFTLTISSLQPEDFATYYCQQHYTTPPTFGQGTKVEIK
With B1, the “ARP-1, Conjugate M 2° antibody cell killing, EC50” value in [1] came to 1.9 nM. The “U266B1, Conjugate M 2° antibody cell killing, EC50” value in assay [1] was found to be 0.9 nM. For the same molecule, the Kd in assay [2] was 6.2 nM; in [3] it was 5.2 nM; in assay [4] it was 3.68 nM; in [5] it was 0.499 nM. The koff in [4] turned out to be 0.00116 s⁻¹; in assay [5] it was 0.000293 s⁻¹. Further, the kon was 315000 M⁻¹ s⁻¹ in [4] and 587000 M⁻¹ s⁻¹ in assay [5].

B2: 2265-F02 Y180/F404 (unconjugated Ab), unconjugated antibody version of Conjugate 4 (antibody, human IgG1, kappa, V domains shown)
VH: EVQLVESGGGLVQPGGSLRLSCAASGFNISAPGIHWVRQAPGKGLEWVGFINPAGGYTDYADSVKGRFTISADTSKNTAYLQMNSLRAEDTAVYYCARDYIRQYWTYVLDYWGQGTLVTVSS
VL: not shown
modifications: p-azidomethyl-phenylalanine (pAMF) replacing HC-Y180 and HC-F404 by EU numbering (actual positions 186 and 410 as printed)
notes: Aglycosylated humanized IgG1
On to B2, for which the dissociation constant Kd in assay [6] amounted to 1 nM; in assay [7] it was 0.9 nM; in assay [8], 1.3 nM; in [9] it was 1.3 nM; in assay [10], 2.8 nM; in assay [11] it was 2.1 nM. Besides, the affinity in assay [13], expressed as Kd, was 0.9 nM. Further, the binding result in assay [12] was “no binding (tested: titrated from 200 nM)”.

B3: Conjugate 4: Antibody 2265-F02 conjugated to a non-cleavable maytansine warhead (Conjugate M) at Y180/F404 site (DAR4) (antibody, human IgG1, kappa, V domains shown)
VH: EVQLVESGGGLVQPGGSLRLSCAASGFNISAPGIHWVRQAPGKGLEWVGFINPAGGYTDYADSVKGRFTISADTSKNTAYLQMNSLRAEDTAVYYCARDYIRQYWTYVLDYWGQGTLVTVSS
VL: not shown
modifications: p-azidomethyl-phenylalanine (pAMF) at HC-Y180 and HC-F404 by EU numbering (actual positions 186 and 410 as printed), each linked to the non-cleavable maytansinoid drug-linker (Conjugate M); DAR 4
notes: also called Conjugate 4 ADC; BCMA ADC Conjugate 4
As for B3, in assay [14], the “cell killing EC50, NCI-H929, Experiment 1” value amounted to 0.8 nM; the “cell killing EC50, NCI-H929, Experiment 2” value was 0.8 nM; the “cell killing EC50, OPM2, Experiment 1” value came to 1.7 nM; the “cell killing EC50, OPM2, Experiment 2” value was found to be 1.8 nM. In [14], the “cell killing EC50, U266B1, Experiment 1” value came out at 0.8 nM and the “cell killing EC50, U266B1, Experiment 2” value worked out at 0.9 nM. Besides, in [15], the “cell killing EC50, NCI-H929, Experiment 1” value came to 0.7 nM; the “cell killing EC50, NCI-H929, Experiment 2” value was 0.8 nM; the “cell killing EC50, OPM2, Experiment 1” value amounted to 1.7 nM; the “cell killing EC50, OPM2, Experiment 2” value was determined as 2 nM. In assay [15], the “cell killing EC50, U266B1, Experiment 1” value amounted to 0.7 nM and the “cell killing EC50, U266B1, Experiment 2” value amounted to 0.8 nM. Moreover, in assay [16], the “cell killing EC50, ARP-1, no competing reagent” value came out at 0.7 nM; the “cell killing EC50, NCI-H929, no competing reagent” value is 0.9 nM; the “cell killing EC50, OPM2, no competing reagent” value came out at 3.3 nM; the “cell killing EC50, U266B1, no competing reagent” value stood at 0.9 nM. Moreover, in [17], the “cell killing EC50, ARP-1” value stood at 0.7 nM; the “cell killing EC50, MM.1S” value was 0.82 nM; the “cell killing EC50, NCI-H929” value was 0.8 nM; the “cell killing EC50, OPM-2” value came to 2.1 nM. Besides, the “cell killing EC50, U266B1” value in assay [17] worked out at 0.86 nM. This molecule showed a Kd in [6] of 1.2 nM. Besides, the Kd in assay [7] came to 1.6 nM. The same molecule registered a dissociation constant Kd in [8] of 2.3 nM. Binding in [18] was put at a Kd of 3.9 nM. In assay [19], this molecule yielded a Kd of 2.4 nM. The molecule also showed a Kd in [9] of 1.8 nM. For the same molecule, binding in assay [10] was put at a Kd of 2.7 nM. Besides, the binding result in assay [12] is recorded as “no binding (tested: titrated from 200 nM)”. In addition, in assay [20], the binding result was “no binding (tested: 67 nM)”. Besides, the binding result in assay [21] is given as “no binding (tested: 67 nM)”.

The Kd is a measure of binding affinity in units of concentration. High values mean weaker binding, low ones tighter binding. Broadly, the koff is the first-order rate constant of dissociation. The term kon denotes the rate constant with which the complex forms. A lower kon goes with slow association.

These data come from US20220323599A1 (CELGENE, published 2022).
